Laboratory results: patent US12404345B2, “Humanized antibodies against iRHOM2” (SCIRHOM GMBH, priority 2021, dated 2025)
Positions count from the first letter of the chain named.

B1: 16-B-03: humanized antibody binding human iRhom2; HCVD SEQ ID NO 1, LCVD SEQ ID NO 5 (antibody, V domains shown)
VH: QVTLRESGPALVKPTQTLTLTCTFSGFSLSTFALGVGWIRQPPGKALEWLAHIWWDDDKYYNPALKSRLTISKDTSKNQVVLTITNMDPVDTATYYCARITTYYYGMDYWGQGTLVTVSS
VL: EIVMTQSPDFQSVTPKEKVTITCRASQSIGNHLHWYQQKPDASPKLLIKYASQSISGVPSRFSGSGSGTDFTLTINSLEAEDAATYFCQQSYQWPLTFGQGTKLEIK
modifications: antibody sequences
B2: 16-B-05: humanized antibody binding human iRhom2; HCVD SEQ ID NO 9, LCVD SEQ ID NO 13 (antibody, V domains shown)
VH: B1 VH with D57E
VL: B1 VL with Q93N
modifications: antibody sequences
B3: 16-B-07: humanized antibody binding human iRhom2; HCVD SEQ ID NO 17, LCVD SEQ ID NO 21 (antibody, V domains shown)
VH: B1 VH with D57E
VL: B1 VL
modifications: antibody sequences
B4: 23-B-04: humanized antibody binding human iRhom2; HCVD SEQ ID NO 25, LCVD SEQ ID NO 29 (antibody, V domains shown)
VH: QVTLRESGPALVKPTQTLTLTCTFSGFSLSTFGMGVGWIRQPPGKALEWLAHIWWDDEKYYNSALKSRLTISKDTSKNQVVLTITNMDPVDTATYYCARISNYGSNYWYFNVWGQGTLVTVSS
VL: AIQLTQSPSSLSASVGDRVTITCRASSSVSYMYWYQQKPGKAPKVLIYDTSNLASGVPSRFSGSGSGTDYTLTISSLQPEDFATYYCQQWNAYPLTFGQGTKLEIK
modifications: antibody sequences
B5: 42-B-04: humanized antibody binding human iRhom2; HCVD SEQ ID NO 41, LCVD SEQ ID NO 45 (antibody, V domains shown)
VH: B4 VH with M34R, S101Q, N111D
VL: B4 VL with S28R, V29I, Y33F
modifications: antibody sequences
B6: 42-B-02: humanized antibody binding human iRhom2; HCVD SEQ ID NO 33, LCVD SEQ ID NO 37 (antibody, V domains shown)
VH: B4 VH with M34R, S101Q, N111D
VL: B4 VL with S28R, V29I, Y33F, A92S
modifications: antibody sequences

tested on: cynomolgus monkey iRhom2; experiment: FACS cross-reactivity on MEF-DKO-Cyno-iR2-FL-WT-T7 cells; assay type: binding; settings: antibody at 3 μg/ml
From the text: (§1) Next, iRhom1/2−/− DKO MEFs stably expressing a tagged form of rhesus monkey, cynomolgus monkey, dog or rabbit iRhom2 were generated in order to determine cross-reactivity of the antibodies of the invention with the respective orthologue of iRhom2. iRhom1/2−/− DKO MEFs stably expressing a tagged form of rhesus monkey, cynomolgus monkey, dog or rabbit iRhom1 were generated to confirm specificity for iRhom2 versus iRhom1 of these species.
(§2) In brief, on day 1, Phoenix-ECO cells (American Type Culture Collection, USA) were seeded on 6-well tissue culture plates (Greiner, Germany) in standard growth medium at 8×10^5 cells per well and kept overnight at 37° C., 5% CO2. On day 2, the medium was replaced by fresh medium supplemented with chloroquine (Sigma-Aldrich, USA) at a final concentration of 25 μM. Applying the calcium phosphate method, cells were transfected with 2 μg/ml of pMSCV (Clontech, USA) empty vector, pMSCV-rhesus-iR2-FL-WT-T7 encoding rhesus monkey iRhom2 full length wild type C-terminally tagged with 3 consecutive copies of the T7 epitope, pMSCV-cyno-iR2-FL-WT-T7 encoding cynomolgus monkey iRhom2 full length wild type C-terminally tagged with 3 consecutive copies of the T7 epitope, pMSCV-dog-iR2-FL-WT-T7 encoding dog iRhom2 full length wild type C-terminally tagged with 3 consecutive copies of the T7 epitope or pMSCV-rabbit-iR2-FL-WT-T7 encoding rabbit iRhom2 full length wild type C-terminally tagged with 3 consecutive copies of the T7 epitope, respectively, and were kept at 37° C., 5% CO2. After 7 hours, the transfections were stopped by replacing cell supernatants with standard growth medium lacking chloroquine, and cells were incubated at 37° C., 5% CO2 to allow virus production overnight. In parallel, immortalized iRhom1/2−/− DKO MEFs as target cells for retroviral infection were seeded on 6-well tissue culture plates (Greiner, Germany) in standard growth medium at 1×10^5 cells per well and were also kept overnight at 37° C., 5% CO2. On day 3, the supernatants of Phoenix-ECO cells releasing pMSCV, pMSCV-rhesus-iR2-FL-WT-T7, pMSCV-cyno-iR2-FL-WT-T7, pMSCV-dog-iR2-FL-WT-T7 or pMSCV-rabbit-iR2-FL-WT-T7 ecotrophic virus, respectively were collected, filtered with 0.45 μm CA filters, and supplemented with 4 μg/ml of polybrene (Sigma-Aldrich, USA). Upon removal of medium from the immortalized iRhom1/2−/− DKO MEFs, the virus containing supernatants were added to the target cells for 4 hours at 37° C., 5% CO2 for first infection. Simultaneously, Phoenix-ECO cells were re-incubated with fresh medium, which, after another 4 hours, was filtered and used for the second infection of the respective target cell populations, again in the presence of 4 μg/ml of polybrene. Likewise, a third, but overnight infection cycle was performed. On day 4, virus containing cell supernatants were replaced by fresh standard growth medium. From day 5 onwards, cells were grown in the presence of 2 mg/ml of geneticin (G418, Thermo Fisher Scientific, USA) for the selection of immortalized MEF-DKO-EV control cells stably infected with pMSCV empty vector, pMSCV-rhesus-iR2-FL-WT-T7 cells stably expressing rhesus monkey iRhom2 full length wild type C-terminally tagged with 3 consecutive copies of the T7 epitope, pMSCV-cyno-iR2-FL-WT-T7 cells stably expressing cynomolgus monkey iRhom2 full length wild type C-terminally tagged with 3 consecutive copies of the T7 epitope, pMSCV-dog-iR2-FL-WT-T7 cells stably expressing dog iRhom2 full length wild type C-terminally tagged with 3 consecutive copies of the T7 epitope or pMSCV-rabbit-iR2-FL-WT-T7 cells stably expressing rabbit iRhom2 full length wild type C-terminally tagged with 3 consecutive copies of the T7 epitope, respectively. Upon propagation, cells were stocked for future usage. In parallel, iRhom1/2−/− DKO MEFs stably expressing a tagged form of rhesus monkey, cynomolgus monkey, dog or rabbit iRhom1 were generated in an analogous manner. […]

**Q.** How did the “binding to cynomolgus monkey iRhom2 on MEF-DKO-Cyno-iR2-FL-WT-T7 cells” value (“binding to cynomolgus monkey iRhom2” for short) turn out when B1 was run?
**A.** Strong binding

**Q.** B2 was tested. Which “binding to cynomolgus monkey iRhom2” value did it give?
**A.** recognize cynomolgus monkey iRhom2

**Q.** How did the “binding to cynomolgus monkey iRhom2” value turn out when B3 was run?
**A.** recognize cynomolgus monkey iRhom2

**Q.** With B4 as the molecule, how does the “binding to cynomolgus monkey iRhom2” value read?
**A.** recognize cynomolgus monkey iRhom2

**Q.** Which “binding to cynomolgus monkey iRhom2” value does the source give for B5 here?
**A.** recognize cynomolgus monkey iRhom2

**Q.** Which “binding to cynomolgus monkey iRhom2” value does the source give for B6 here?
**A.** recognize cynomolgus monkey iRhom2

tested on: rabbit iRhom2; experiment: FACS cross-reactivity on MEF-DKO-Rabbit-iR2-FL-WT-T7 cells; assay type: binding; settings: antibody at 3 μg/ml
From the text: as §1, §2

**Q.** Which “binding to rabbit iRhom2 on MEF-DKO-Rabbit-iR2-FL-WT-T7 cells” value (from here on “binding to rabbit iRhom2”) does the source give for B1 here?
**A.** Strong binding

**Q.** Which “binding to rabbit iRhom2” value does the source give for B2 here?
**A.** recognize rabbit iRhom2

**Q.** With B3 as the molecule, how does the “binding to rabbit iRhom2” value read?
**A.** recognize rabbit iRhom2

**Q.** Which “binding to rabbit iRhom2” value does the source give for B4 here?
**A.** recognize rabbit iRhom2

**Q.** B5 was tested. Which “binding to rabbit iRhom2” value did it give?
**A.** recognize rabbit iRhom2

**Q.** For B6, which “binding to rabbit iRhom2” value is on record?
**A.** recognize rabbit iRhom2

target: T1, rhesus monkey iRhom1 (Macaca mulatta, UniProt F6ZPC8); experiment: FACS binding on MEF-DKO-Rhesus-iR1-FL-WT-T7 cells; settings: antibody at 3 μg/ml
T1 construct: T7-tagged version of rhesus monkey iRhom1 full length wild type; expressed in transfected cells; host or cells: immortalized iRhom1/2-/- DKO mouse embryonic fibroblasts, pMSCV retroviral infection
T1 sequence (F6ZPC8 1-833): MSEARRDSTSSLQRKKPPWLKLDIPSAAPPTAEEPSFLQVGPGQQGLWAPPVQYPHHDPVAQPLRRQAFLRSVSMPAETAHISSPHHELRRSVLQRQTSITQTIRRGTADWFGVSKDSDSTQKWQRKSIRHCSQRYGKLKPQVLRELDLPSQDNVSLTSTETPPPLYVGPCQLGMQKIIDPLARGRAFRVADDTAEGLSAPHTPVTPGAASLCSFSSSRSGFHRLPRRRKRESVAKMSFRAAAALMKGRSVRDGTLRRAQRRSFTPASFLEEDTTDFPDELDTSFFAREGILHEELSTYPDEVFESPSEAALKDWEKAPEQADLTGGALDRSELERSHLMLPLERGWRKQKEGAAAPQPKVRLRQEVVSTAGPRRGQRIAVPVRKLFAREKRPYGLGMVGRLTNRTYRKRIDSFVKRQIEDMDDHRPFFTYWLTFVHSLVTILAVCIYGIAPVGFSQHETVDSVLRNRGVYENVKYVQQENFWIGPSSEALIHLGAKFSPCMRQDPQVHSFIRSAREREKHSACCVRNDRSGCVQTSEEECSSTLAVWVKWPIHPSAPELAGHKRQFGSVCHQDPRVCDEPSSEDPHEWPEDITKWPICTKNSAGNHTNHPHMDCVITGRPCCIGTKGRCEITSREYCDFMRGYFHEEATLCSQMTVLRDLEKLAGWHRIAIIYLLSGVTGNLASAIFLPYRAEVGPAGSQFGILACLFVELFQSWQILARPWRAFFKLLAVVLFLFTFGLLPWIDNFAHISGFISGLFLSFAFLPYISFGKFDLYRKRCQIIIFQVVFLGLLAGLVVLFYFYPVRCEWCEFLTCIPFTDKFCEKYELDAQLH
From the text: as §1, §2

**Q.** B1 was tested. Which “binding to rhesus monkey iRhom1 on MEF-DKO-Rhesus-iR1-FL-WT-T7 cells” value (“binding to rhesus monkey iRhom1” for short) did it give?
**A.** no significant binding

**Q.** B2 was tested. Which “binding to rhesus monkey iRhom1” value did it give?
**A.** do not recognize rhesus monkey iRhom1

**Q.** How did the “binding to rhesus monkey iRhom1” value turn out when B3 was run?
**A.** do not recognize rhesus monkey iRhom1

**Q.** With B4 as the molecule, how does the “binding to rhesus monkey iRhom1” value read?
**A.** do not recognize rhesus monkey iRhom1

**Q.** B5 was tested. Which “binding to rhesus monkey iRhom1” value did it give?
**A.** do not recognize rhesus monkey iRhom1

**Q.** B6 was tested. Which “binding to rhesus monkey iRhom1” value did it give?
**A.** do not recognize rhesus monkey iRhom1
